Measured values: paper PMC6138693, “Structural determinants of Rab11 activation by the guanine nucleotide exchange factor SH3BP5” (Nature Communications, 2018)

Columns and labels:
[1] = molecular target: WT Rab11A (1–211, C-term his) (human) (UniProt P62491)
Rab11A K41P (human) = Rab11A K41P (human) (UniProt P62491)
Rab11A S40F (human) = Rab11A S40F (human) (UniProt P62491)
Rab11A L38P (human) = Rab11A L38P (human) (UniProt P62491)
Rab11A K13N (human) = Rab11A K13N (human) (UniProt P62491)
Chain of Rab11A K13N (human) (P62491 whole entry K13N): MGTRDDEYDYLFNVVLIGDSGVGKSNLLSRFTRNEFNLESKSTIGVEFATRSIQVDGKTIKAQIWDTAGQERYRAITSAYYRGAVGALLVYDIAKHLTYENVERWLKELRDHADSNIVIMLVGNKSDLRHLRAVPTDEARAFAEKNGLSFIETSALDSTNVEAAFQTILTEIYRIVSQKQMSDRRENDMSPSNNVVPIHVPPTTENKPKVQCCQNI

Chain of WT Rab11A (1–211, C-term his) (human) (P62491 1-211): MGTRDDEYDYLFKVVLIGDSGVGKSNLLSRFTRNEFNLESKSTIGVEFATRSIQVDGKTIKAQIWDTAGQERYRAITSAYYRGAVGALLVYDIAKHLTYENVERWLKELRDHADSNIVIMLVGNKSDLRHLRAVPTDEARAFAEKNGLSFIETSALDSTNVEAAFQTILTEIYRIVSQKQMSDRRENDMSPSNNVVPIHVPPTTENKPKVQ

B1: SH3BP5 (LNQ52AAA) (natural protein)
chain: MDAALKRSRSEEPAEILPPARDEEEEEEEGMEQGLEEEEEVDPRIQGELEKAAASTDDINRRETELEDARQKFRSVLVEATVKLDELVKKIGKAVEDSKPYWEARRVARQAQLEAQKATQDFQRATEVLRAAKETISLAEQRLLEDDKRQFDSAWQEMLNHATQRVMEAEQTKTRSELVHKETAARYNAAMGRMRQLEKKLKRAINKSKPYFELKAKYYVQLEQLKKTVDDLQAKLTLAKGEYKMALKNLEMISDEIHERRRSSAMGPRGCGVGAEGSSTSVEDLPGSKPEPDAISVASEAFEDDSCSNFVSEDDSETQSVSSFSSGPTSPSEMPDQFPAVVRPGSLDLPSPVSLSEFGMMFPVLGPRSECSGASSPECEVERGDRAEGAENKTSDKANNNRGLSSSSGSGGSSKSQSSTSPEGQALENRMKQLSLQCSKGRDGIIADIKMVQIG
GEF activity on Rab11A (Mant-GDP release), mutant (1000 nM) compared with WT SH3BP5 (52 nM) (fold decrease) [1]: > 100

B2: SH3BP5 (1–455), full-length (natural protein)
chain: MDAALKRSRSEEPAEILPPARDEEEEEEEGMEQGLEEEEEVDPRIQGELEKLNQSTDDINRRETELEDARQKFRSVLVEATVKLDELVKKIGKAVEDSKPYWEARRVARQAQLEAQKATQDFQRATEVLRAAKETISLAEQRLLEDDKRQFDSAWQEMLNHATQRVMEAEQTKTRSELVHKETAARYNAAMGRMRQLEKKLKRAINKSKPYFELKAKYYVQLEQLKKTVDDLQAKLTLAKGEYKMALKNLEMISDEIHERRRSSAMGPRGCGVGAEGSSTSVEDLPGSKPEPDAISVASEAFEDDSCSNFVSEDDSETQSVSSFSSGPTSPSEMPDQFPAVVRPGSLDLPSPVSLSEFGMMFPVLGPRSECSGASSPECEVERGDRAEGAENKTSDKANNNRGLSSSSGSGGSSKSQSSTSPEGQALENRMKQLSLQCSKGRDGIIADIKMVQIG
SH3BP5-mediated GEF activity (Mant-GDP release, kcat/Km), mutant compared with WT Rab11A (fold decrease) (Rab11A K41P (human)): > 100 | SH3BP5-mediated GEF activity (Mant-GDP release, kcat/Km), mutant compared with WT Rab11A (fold decrease) (Rab11A S40F (human)): > 100 | SH3BP5-mediated GEF activity (Mant-GDP release, kcat/Km), mutant compared with WT Rab11A (fold decrease) (Rab11A L38P (human)): > 100 | SH3BP5-mediated GEF activity (Mant-GDP release, kcat/Km), mutant compared with WT Rab11A (fold decrease) (Rab11A K13N (human)): > 100

B3: SH3BP5 (LE250AK) (natural protein)
chain: MDAALKRSRSEEPAEILPPARDEEEEEEEGMEQGLEEEEEVDPRIQGELEKLNQSTDDINRRETELEDARQKFRSVLVEATVKLDELVKKIGKAVEDSKPYWEARRVARQAQLEAQKATQDFQRATEVLRAAKETISLAEQRLLEDDKRQFDSAWQEMLNHATQRVMEAEQTKTRSELVHKETAARYNAAMGRMRQLEKKLKRAINKSKPYFELKAKYYVQLEQLKKTVDDLQAKLTLAKGEYKMALKNAKMISDEIHERRRSSAMGPRGCGVGAEGSSTSVEDLPGSKPEPDAISVASEAFEDDSCSNFVSEDDSETQSVSSFSSGPTSPSEMPDQFPAVVRPGSLDLPSPVSLSEFGMMFPVLGPRSECSGASSPECEVERGDRAEGAENKTSDKANNNRGLSSSSGSGGSSKSQSSTSPEGQALENRMKQLSLQCSKGRDGIIADIKMVQIG
GEF activity on Rab11A (Mant-GDP release), mutant (1000 nM) compared with WT SH3BP5 (52 nM) (fold decrease) [1]: > 100
